From paper PMC4517790 (PLoS ONE, 2015) come the findings set out here.

The target in data set [1] is T1, AlrTt (Caldanaerobacter subterraneus, UniProt Q8RAK6).
T1 construct: gene alr1; full length, pET-28a, N- and C-terminal 6xHis tags, E. coli BL21(DE3); 388 residues; homodimer in crystal, monomer in size exclusion
As to the kind of experiment: X-ray crystal structure, […] Å. Type of data set: binding. As to conditions: co-crystallized with L-Ala and PLP, pH 7.0; active site.

For data set [2], the target named is Alanine racemase AlrTt (MBAlr1) from Thermoanaerobacter tengcongensis MB4, wild type (Thermoanaerobacter tengcongensis MB4) (UniProt Q8RAK6). In words: crystal structure; AlrTt (10 mg/mL) incubated with L-Ala and PLP at 1:1.5:1.5 molar ratio, hanging drop, 22% PEG 4000, 0.1 M Bis-Tris pH 7.0, 289 K; 2.7 Å; homodimer in one asymmetric unit.
In data set [3] the target is T1, AlrTt. As to the kind of experiment: PLP content by absorption at […] nm. It is filed as binding. The following applies: active site, internal aldimine with Lys40 (covalent); in the crystal only the phosphate group of PLP was seen.
Substrate in data set [4]: C[C@H](N)C(=O)O
As to the kind of experiment: purified protein. As to conditions: L-Ala to D-Ala; conditions of the kinetic assay not given.

Substrate in data set [5]: C[C@@H](N)C(=O)O
As to the kind of experiment: purified protein. As to conditions: D-Ala to L-Ala; conditions of the kinetic assay not given.

Positions count from the first letter of the chain named. In names and notes the source's numbering stands.

T1 sequence (Q8RAK6 whole entry): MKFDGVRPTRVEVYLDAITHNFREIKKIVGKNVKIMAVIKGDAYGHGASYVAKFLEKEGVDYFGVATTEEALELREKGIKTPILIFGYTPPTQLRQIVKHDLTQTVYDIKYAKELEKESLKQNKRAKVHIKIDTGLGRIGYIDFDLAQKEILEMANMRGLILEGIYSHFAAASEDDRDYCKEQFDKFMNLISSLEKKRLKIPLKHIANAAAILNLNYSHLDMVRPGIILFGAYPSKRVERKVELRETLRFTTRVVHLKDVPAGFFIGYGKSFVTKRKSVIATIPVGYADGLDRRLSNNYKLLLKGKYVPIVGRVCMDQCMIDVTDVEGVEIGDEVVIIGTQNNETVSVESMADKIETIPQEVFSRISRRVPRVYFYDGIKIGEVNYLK

Consider `C[C@H](N)C(=O)O` [L-Ala], for which the “X-ray crystal structure, 2.7 Å” value at AlrTt [1] is “One L-Ala molecule is positioned in the active site pocket by hydrogen bonds”.

For the molecule “Alanine racemase AlrTt (MBAlr1) from Thermoanaerobacter tengcongensis MB4, wild type (from UniProt Q8RAK6 1-388) (enzyme)”, in data set [2], the stoichiometry N worked out at 2.

`Cc1ncc(COP(=O)(O)O)c(C=O)c1O` [PLP] returned a PLP content at AlrTt [3] of 1.44 ± 0.01 mol PLP per mol enzyme.

B1: AlrTt (Caldanaerobacter subterraneus subsp. tengcongensis MB4; Q360Y) (protein)
chain: MKFDGVRPTRVEVYLDAITHNFREIKKIVGKNVKIMAVIKGDAYGHGASYVAKFLEKEGVDYFGVATTEEALELREKGIKTPILIFGYTPPTQLRQIVKHDLTQTVYDIKYAKELEKESLKQNKRAKVHIKIDTGLGRIGYIDFDLAQKEILEMANMRGLILEGIYSHFAAASEDDRDYCKEQFDKFMNLISSLEKKRLKIPLKHIANAAAILNLNYSHLDMVRPGIILFGAYPSKRVERKVELRETLRFTTRVVHLKDVPAGFFIGYGKSFVTKRKSVIATIPVGYADGLDRRLSNNYKLLLKGKYVPIVGRVCMDQCMIDVTDVEGVEIGDEVVIIGTQNNETVSVESMADKIETIPYEVFSRISRRVPRVYFYDGIKIGEVNYLK
Consider B1, for which, in “purified protein [4]”, the Km turned out to be 87.81 ± 8.72 mM, the kcat turned out to be 431 s⁻¹ and the kcat/Km stood at 4910 M⁻¹ s⁻¹. Moreover, in the data set “purified protein [5]”, the Km amounted to 52.03 ± 5.41 mM, the kcat was determined as 251 s⁻¹ and the kcat/Km amounted to 4830 M⁻¹ s⁻¹.

B2: AlrTt (Caldanaerobacter subterraneus subsp. tengcongensis MB4; Q360Y/S173D) (protein)
chain: B1 chain with S173D
Turning to B2, in “purified protein [4]”, the Michaelis constant (Km) was determined as 83.10 ± 8.78 mM, the kcat came out at 246 s⁻¹ and the kcat/Km is 2970 M⁻¹ s⁻¹. Also, in “purified protein [5]”, the Michaelis-Menten constant (Km) was 58.48 ± 7.29 mM, the kcat came out at 133 s⁻¹ and the catalytic efficiency (kcat/Km) was determined as 2270 M⁻¹ s⁻¹.
